B1: Pistol ribozyme (parent)
chain: GGGUCGUUGUUCCAUAAUCGCGUGGAUAUGGCACGCAAGUUUCUACCGGGCACCGUAAAUGUCCGACUGGAGCCGUUCGGGCGGCUAUAAACAGACCUCAGGCCCGAAGCGUGGCGGCACCUGCCGCCGGUGGUAAAAAAGAUCGGAAGAGCACACGUCU

83 variants from the RNAGym collection of RNA variant scans (doi:10.1021/acssynbio.7b00057) can be followed below.

This series covers variants of B1. The series can be described thus: aptazyme ON/OFF ratio, guanine; higher = stronger switching; co-transcriptional cleavage with and without guanine.
Consider U7G U8G G9U U11G C13A, for which the “aptazyme ON/OFF ratio” value was determined as 1.2. Then U8G G9A U11C C12A C13G, with 1.16.

Regarding U7C U8G G9U U10A U11A C12G C13G, the “aptazyme ON/OFF ratio” value amounted to 1.28. Then U8C G9A U11A C12G C13A, with 1.14; and U7C U8C G9A U10G U11C C12A C13A, with 1.2.

For the variant U8C G9U U10C U11C C12A, the “aptazyme ON/OFF ratio” value is 1.03. Then U7G U8C G9A U10G C12U C13G, with 1.1.

In the case of U7A U8G G9A U10C U11G, the “aptazyme ON/OFF ratio” value turned out to be 1.74.

As for U8G U10G C13A, the “aptazyme ON/OFF ratio” value was determined as 1.15. Then U7G G9C C12G C13G, with 1.26; and U8C G9A U10A U11G, with 1.45.

In the case of U7G G9U U10G U11G C13G, the “aptazyme ON/OFF ratio” value was found to be 1.18. The result for U7A U8G U10G U11G C12A C13U reads 1.41. Then U7C U8C G9C U10C U11A C12G C13G, with 1.13; and U7C U8A U11C, with 1.1. Then U7C U8A U10A U11G C13U, with 1.21; and U7G U8C G9C U10A U11G C12U C13A, with 1.22.

For U7C U8C G9C U10A U11A C12G C13U, the “aptazyme ON/OFF ratio” value was determined as 1.09. On to U7C U8A G9A U10G U11A, for which the “aptazyme ON/OFF ratio” value stood at 1.01. On to U8A U10C U11A C12A, for which the “aptazyme ON/OFF ratio” value is 1.13. As to U7C G9U U10G U11A, the “aptazyme ON/OFF ratio” value came out at 1.03.

Regarding U7C G9U U10A, the “aptazyme ON/OFF ratio” value was found to be 1.32. The result for U7A U8A G9U U10G U11A C12A C13U reads 1.16. The result for U7C G9C U11G C12G C13U reads 1.07; that for U7A U8C G9C U10A U11C C13U, 1.12; that for U7C G9A U10C U11G C12U, 1.45. The result for U7A G9C U10G C12A reads 1.09; that for G9U U10G C12G C13A, 1.44; that for U7C U8G U10G U11A C12G C13A, 1.1. On to U7C U8C G9A U10A U11A C13U, for which the “aptazyme ON/OFF ratio” value was 1.25. In the case of U7C U8G G9C U10C U11G, the “aptazyme ON/OFF ratio” value was 1.16. Turning to U7C U8A U11A C13A, the “aptazyme ON/OFF ratio” value worked out at 1.15. Then U7G G9C U10G U11A C12U C13A, with 1.17; and U7G U8G G9U U10C U11C, with 2.05; and U7G U8A G9A U10C C12G C13G, with 1.11. As to U7A, the “aptazyme ON/OFF ratio” value came out at 3.28.

In the case of U8A G9A U10A, the “aptazyme ON/OFF ratio” value was 1.65. The result for U7A G9C U10C U11G C13G reads 1.08. The result for U7G U8A G9A U10C U11A C12A C13U reads 1.13. Then U7C U8C U11C C13U, with 1.3. On to U7A G9U U10A U11G, for which the “aptazyme ON/OFF ratio” value was 1.31. The result for U7C G9A U10G U11G C12U C13G reads 1.05; that for U7C U8A U10A U11C C12A C13G, 1.06. Turning to U7C U8C U10C U11C C12G, the “aptazyme ON/OFF ratio” value was determined as 1.2. In the case of U7A U8G G9U U10G U11C C12G C13U, the “aptazyme ON/OFF ratio” value turned out to be 1.22.

Consider U7A G9C U10G U11A C12G C13A, for which the “aptazyme ON/OFF ratio” value was found to be 1.07. Then U8C G9C U10G U11A C12U C13U, with 1.04; and U7A U8C G9A U11G C12A C13G, with 1.21; and U7G U8G G9A U10C U11C C13G, with 0.991.

U7C U8A U11A C12U: the “aptazyme ON/OFF ratio” value turned out to be 1.16. On to U10C C12A, for which the “aptazyme ON/OFF ratio” value was found to be 1.51. The result for U8C G9C U10C U11A C12G C13G reads 1.08; that for U7A G9C U11G C12U, 1.57. The result for U7C U8A G9U U10A C12A C13A reads 1.29; that for U7A U8C G9A U10G U11A C12U C13G, 1.14. Turning to U7C U8A G9A U10C U11G C12U C13A, the “aptazyme ON/OFF ratio” value is 1.17. Consider U7A U8G U10G U11A C12A, for which the “aptazyme ON/OFF ratio” value worked out at 1.09. In the case of U7G G9C U10A C12G, the “aptazyme ON/OFF ratio” value came out at 1.4. The result for U7A U8G G9A U10C C12U reads 1.23; that for U8G G9U U10C C12A C13G, 1.15; that for U7C U8G G9A U10A C12A C13U, 1.19.

As to U7A U8A G9A U11C C12U C13A, the “aptazyme ON/OFF ratio” value was found to be 1.24. U7G U8C U10G U11C C12G C13U: the “aptazyme ON/OFF ratio” value was found to be 1.36. For U8C G9U U10G U11C C13G, the “aptazyme ON/OFF ratio” value worked out at 1.04.

U7A U8C G9A U10A U11C C13U: the “aptazyme ON/OFF ratio” value is 1.04. Then U8A G9C U10C U11A C12U, with 1.13; and U7C G9C U10C C12A C13U, with 1.04. For the variant U8G G9A U10C C12A, the “aptazyme ON/OFF ratio” value amounted to 1.25.

In the case of U7A U8G U11A, the “aptazyme ON/OFF ratio” value was found to be 1.49. Then U8C G9A U11C C12G C13A, with 1.24; and U7A U8C G9U U10C U11C C12G C13A, with 1.04. The result for G9C U11A C12A C13A reads 1.26.

Consider U7A G9C U11G C12A C13G, for which the “aptazyme ON/OFF ratio” value turned out to be 1.14.

On to U8G U11G C12U C13G, for which the “aptazyme ON/OFF ratio” value was 1.24. Then U8A U10G U11A C12A, with 1.06; and U8A G9C U10G U11C C12A, with 1.18; and U8A G9A U10C U11C C12G, with 1.05. Then U7A G9A U10C U11A C13A, with 1.15; and U7C G9C U10C C12U C13U, with 1.07; and U7A U8A G9A U10A C12U C13U, with 1.47. On to U7A U8G G9U U10C U11G C13U, for which the “aptazyme ON/OFF ratio” value is 1.31. The result for U7G U8C G9A U10C U11G C12A reads 1.07. The result for U7G G9U C13G reads 1.2.
